# Measured values reported in paper PMC12714136, “14-3-3θ phosphorylation at S232 reduces its interactome and regulates axonal trafficking” (Disease Models & Mechanisms, 2025).
# T1: nuclear distribution protein nude-like 1 (M17 neuroblastoma cells) (human (endogenous in SK-N-BE(2)-M17), UniProt Q9GZM8 1-345)
# T1 construct: nuclear distribution protein nudE-like 1, endogenous in SK-N-BE(2)-M17 cells; also called NDEL1; source: endogenous, SK-N-BE(2)-M17 neuroblastoma cells (fixed cells)
# T1 sequence (looked up): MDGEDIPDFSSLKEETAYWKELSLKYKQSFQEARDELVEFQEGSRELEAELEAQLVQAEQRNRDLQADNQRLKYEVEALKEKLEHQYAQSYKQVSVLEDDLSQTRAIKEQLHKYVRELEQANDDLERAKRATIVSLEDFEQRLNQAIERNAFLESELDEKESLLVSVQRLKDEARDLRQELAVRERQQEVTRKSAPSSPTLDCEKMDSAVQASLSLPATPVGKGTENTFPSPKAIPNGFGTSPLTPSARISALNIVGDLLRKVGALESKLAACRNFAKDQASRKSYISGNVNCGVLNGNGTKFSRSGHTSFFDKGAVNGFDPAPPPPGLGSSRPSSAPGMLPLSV
# Target: T1, nuclear distribution protein nude-like …
# Assay: proximity ligation; fixed M17 cells stably expressing V5-tagged 14-3-3θ S232A or S232D; anti-V5 with anti-NDEL1 or anti-BCR antibody; DuoLink probes; objects per area, normalised
# Details: partners not purified
binder,measurement,value
"V5-tagged 14-3-3θ S232A (natural protein, UniProt P27348 1-245, looked up, 14-3-3 protein theta with S232A; also called V5-14-3-3θ phospho-mutant S232A; source: SK-N-BE(2)-M17 cells, stably transfected (fixed cells)) MEKTELIQKAKLAEQAERYDDMATCMKAVTEQGAELSNEERNLLSVAYKNVVGGRRSAWRVISSIEQKTDTSDKKLQLIKDYREKVESELRSICTTVLELLDKYLIANATNPESKVFYLKMKGDYFRYLAEVACGDDRKQTIDNSQGAYQEAFDISKKEMQPTHPIRLGLALNFSVFYYEILNNPELACTLAKTAFDEAIAELDTLNEDSYKDSTLIMQLLRDNLTLWTSDAAGEECDAAEGAEN",fold PLA signal against S232D,~2 fold
